This note sets out measurements from patent publication US6709650B1, “Spray-dried microparticles and their use as therapeutic vehicles” (Elam Drug Delivery Limited, priority 1991, dated 2004).

The conditions of data set [1]: soluble HSA microcapsules dissolved in water or extracted; TLC or HPLC.
Method: The beclomethasone was extracted from the microcapsules by the precipitation of the HSA in 10% TCA, and the supernatant was extracted into ethanol. The ethanol extract was analysed using HPLC, at a wavelength 242 nm.
The soluble microcapsules thus made were sampled, characterised and analysed for drug content.
In the next data set the target is T1, trypsin (Bos taurus, UniProt P00760).
T1 construct: gene PRSS1
T1 sequence (P00760 24-246): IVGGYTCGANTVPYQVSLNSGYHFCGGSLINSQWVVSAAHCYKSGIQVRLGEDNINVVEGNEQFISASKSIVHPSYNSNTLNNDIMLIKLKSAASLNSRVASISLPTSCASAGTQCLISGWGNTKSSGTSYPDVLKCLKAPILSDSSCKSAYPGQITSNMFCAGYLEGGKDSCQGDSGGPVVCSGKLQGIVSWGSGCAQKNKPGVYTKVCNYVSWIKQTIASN
In words: Trypsin inhibitory activity of spray-dried alpha-1 antitrypsin vs freeze dried starting material. The class given is biochemical. As to conditions: within the experimental error. The method, then:
(§1) Alpha-1 antitrypsin derived from human serum was spray-dried under conditions similar to Example 1 with an inlet temperature of 150° C. and an outlet temperature of 80° C. In all other respects the conditions for drying were the same as Example 1. […] The microparticles were dissolved in aqueous medium and analysed for retention of protein structure and normal trypsin inhibitory activity, then compared to the original freeze dried starting material.

Data set [2] can be described thus: Structural integrity of protein after spray-drying (gel filtration, tryptic peptide mapping, reverse phase, capillary electrophoresis). It is filed as physicochemical. The settings on record: microparticles dissolved in aqueous medium, compared with original material. Here is the method: Under the conditions described, with a nozzle pressure of 7.5 bar, microparticles were produced with a particle size of 4.7 μm. These soluble microparticles were smooth and spherical with less than 1% of the particles over a particle size of 6 μm. The microparticles were dissolved in aqueous medium and the molecular weight of the HSA determined by gel filtration chromatography. The resultant chromatograms for the original and spray-dried HSA are shown (FIG. 1).
as §1
A general note: Size exclusion chromatography separates by hydrodynamic size, large species first.

As for `C[C@H]1C[C@H]2[C@@H]3CCC4=CC(=O)C=C[C@]4(C)[C@@]3(Cl)[C@@H](O)C[C@]2(C)[C@@]1(O)C(=O)CO` [beclomethasone], in data set [1], the “state of the active compound on dissolution of the microcapsules” value was “majority of the active compound was in the free state”.

For the molecule “Alpha-1 antitrypsin: Alpha-1 antitrypsin derived from human serum, spray-dried to soluble microparticles of mean size 4.5 μm”, the “retention of inhibitory activity after spray-drying” value with trypsin is given as “full retention of inhibitory activity”. Also, the “structural change of the protein after spray-drying” value in data set [2] was “no significant structural changes”.
